Data taken from paper PMC12102759 (2025).

B1: RNF115 peptide 67-82 (E3 ubiquitin-protein ligase RNF115), 16-mer library wild type / MDM2 SWIB (MDM2 SWIB/MDM2 domain, residues 17-125) (parent complex)
chain 1: TTTHFAELWGHLDHTM
chain 2: SQIPASEQETLVRPKPLLLKLLKSVGAQKDTYTMKEVLFYLGQYIMTKRLYDEKQQHIVYCSNDLLGDLFGVPSFSVKEHRKIYTMIYRNLVVVNQQESSDSGTSVSEN

Variants of: B1
Assay: proteomic peptide phage display deep mutational scan (ProP-PD DMS): M13 P8 16-mer library selected against immobilised GST-tagged bait for four days (rounds), NGS of the eluted pools per day and pseudo-replica; bait immobilised on MaxiSorp plates (10 µg), library pre-cleared on GST, 2 h binding at 4 °C, five washes; one round per day, days 1-4; value from days 2 and 3

In order of falling screen value:
1. chain 1 D13V  0.0143 average fractional NGS count over selection days 2 and 3 (reads of this peptide / all reads for the bait, averaged over …
2. chain 1 D13T  0.0095 average fractional NGS count over selection days 2 and 3 (reads of this peptide / all reads for the bait, averaged over …
3. chain 1 D13Y  0.00726 average fractional NGS count over selection days 2 and 3 (reads of this peptide / all reads for the bait, averaged over …
4. chain 1 G10A  0.00678 average fractional NGS count over selection days 2 and 3 (reads of this peptide / all reads for the bait, averaged over …
5. chain 1 G10S  0.00615 average fractional NGS count over selection days 2 and 3 (reads of this peptide / all reads for the bait, averaged over …
6. chain 1 D13M  0.00561 average fractional NGS count over selection days 2 and 3 (reads of this peptide / all reads for the bait, averaged over …
7. chain 1 D13G  0.00549 average fractional NGS count over selection days 2 and 3 (reads of this peptide / all reads for the bait, averaged over …
8. chain 1 D13S  0.00426 average fractional NGS count over selection days 2 and 3 (reads of this peptide / all reads for the bait, averaged over …
9. chain 1 H4S  0.0034 average fractional NGS count over selection days 2 and 3 (reads of this peptide / all reads for the bait, averaged over …
10. chain 1 H11L  0.00334 average fractional NGS count over selection days 2 and 3 (reads of this peptide / all reads for the bait, averaged over …
11. chain 1 D13F  0.00274 average fractional NGS count over selection days 2 and 3 (reads of this peptide / all reads for the bait, averaged over …
12. chain 1 D13Q  0.00218 average fractional NGS count over selection days 2 and 3 (reads of this peptide / all reads for the bait, averaged over …
13. chain 1 H4T  0.002 average fractional NGS count over selection days 2 and 3 (reads of this peptide / all reads for the bait, averaged over …
14. chain 1 H4G  0.00192 average fractional NGS count over selection days 2 and 3 (reads of this peptide / all reads for the bait, averaged over …
15. chain 1 T3L  0.00187 average fractional NGS count over selection days 2 and 3 (reads of this peptide / all reads for the bait, averaged over …
16. chain 1 M16V  0.00172 average fractional NGS count over selection days 2 and 3 (reads of this peptide / all reads for the bait, averaged over …
17. chain 1 T3E  0.00168 average fractional NGS count over selection days 2 and 3 (reads of this peptide / all reads for the bait, averaged over …
18. chain 1 M16L  0.0016 average fractional NGS count over selection days 2 and 3 (reads of this peptide / all reads for the bait, averaged over …
19. chain 1 G10M  0.00144 average fractional NGS count over selection days 2 and 3 (reads of this peptide / all reads for the bait, averaged over …
20. chain 1 D13A  0.00127 average fractional NGS count over selection days 2 and 3 (reads of this peptide / all reads for the bait, averaged over …
21. chain 1 D13L  0.00105 average fractional NGS count over selection days 2 and 3 (reads of this peptide / all reads for the bait, averaged over …
22. chain 1 T3W  0.00105 average fractional NGS count over selection days 2 and 3 (reads of this peptide / all reads for the bait, averaged over …
23. chain 1 D13I  0.00102 average fractional NGS count over selection days 2 and 3 (reads of this peptide / all reads for the bait, averaged over …
24. chain 1 T3M  0.000962 average fractional NGS count over selection days 2 and 3 (reads of this peptide / all reads for the bait, averaged over …
25. chain 1 H11R  0.000902 average fractional NGS count over selection days 2 and 3 (reads of this peptide / all reads for the bait, averaged over …
26. chain 1 G10Q  0.000894 average fractional NGS count over selection days 2 and 3 (reads of this peptide / all reads for the bait, averaged over …
27. chain 1 H4I  0.000874 average fractional NGS count over selection days 2 and 3 (reads of this peptide / all reads for the bait, averaged over …
28. chain 1 H4M  0.000847 average fractional NGS count over selection days 2 and 3 (reads of this peptide / all reads for the bait, averaged over …
29. chain 1 H4P  0.000821 average fractional NGS count over selection days 2 and 3 (reads of this peptide / all reads for the bait, averaged over …
30. chain 1 H4Y  0.000766 average fractional NGS count over selection days 2 and 3 (reads of this peptide / all reads for the bait, averaged over …
31. chain 1 D13E  0.000754 average fractional NGS count over selection days 2 and 3 (reads of this peptide / all reads for the bait, averaged over …
32. chain 1 T3Y  0.000753 average fractional NGS count over selection days 2 and 3 (reads of this peptide / all reads for the bait, averaged over …
33. chain 1 D13P  0.00074 average fractional NGS count over selection days 2 and 3 (reads of this peptide / all reads for the bait, averaged over …
34. chain 1 M16W  0.000718 average fractional NGS count over selection days 2 and 3 (reads of this peptide / all reads for the bait, averaged over …
35. chain 1 T3P  0.000694 average fractional NGS count over selection days 2 and 3 (reads of this peptide / all reads for the bait, averaged over …
36. chain 1 T3I  0.00069 average fractional NGS count over selection days 2 and 3 (reads of this peptide / all reads for the bait, averaged over …
37. chain 1 T3A  0.000681 average fractional NGS count over selection days 2 and 3 (reads of this peptide / all reads for the bait, averaged over …
38. chain 1 E7D  0.000661 average fractional NGS count over selection days 2 and 3 (reads of this peptide / all reads for the bait, averaged over …
39. chain 1 L12N  0.000651 average fractional NGS count over selection days 2 and 3 (reads of this peptide / all reads for the bait, averaged over …
40. chain 1 T3V  0.000622 average fractional NGS count over selection days 2 and 3 (reads of this peptide / all reads for the bait, averaged over …
41. chain 1 D13W  0.000615 average fractional NGS count over selection days 2 and 3 (reads of this peptide / all reads for the bait, averaged over …
42. chain 1 H4E  0.000591 average fractional NGS count over selection days 2 and 3 (reads of this peptide / all reads for the bait, averaged over …
43. chain 1 G10W  0.000571 average fractional NGS count over selection days 2 and 3 (reads of this peptide / all reads for the bait, averaged over …
44. chain 1 M16Y  0.000534 average fractional NGS count over selection days 2 and 3 (reads of this peptide / all reads for the bait, averaged over …
45. chain 1 D13N  0.000525 average fractional NGS count over selection days 2 and 3 (reads of this peptide / all reads for the bait, averaged over …
46. chain 1 M16I  0.000492 average fractional NGS count over selection days 2 and 3 (reads of this peptide / all reads for the bait, averaged over …
47. chain 1 E7I  0.000492 average fractional NGS count over selection days 2 and 3 (reads of this peptide / all reads for the bait, averaged over …
48. chain 1 H4L  0.000482 average fractional NGS count over selection days 2 and 3 (reads of this peptide / all reads for the bait, averaged over …
49. chain 1 G10N  0.000457 average fractional NGS count over selection days 2 and 3 (reads of this peptide / all reads for the bait, averaged over …
50. chain 1 M16T  0.00044 average fractional NGS count over selection days 2 and 3 (reads of this peptide / all reads for the bait, averaged over …
51. chain 1 M16E  0.000437 average fractional NGS count over selection days 2 and 3 (reads of this peptide / all reads for the bait, averaged over …
52. chain 1 T3S  0.000431 average fractional NGS count over selection days 2 and 3 (reads of this peptide / all reads for the bait, averaged over …
53. chain 1 D13R  0.000392 average fractional NGS count over selection days 2 and 3 (reads of this peptide / all reads for the bait, averaged over …
54. chain 1 H4D  0.000343 average fractional NGS count over selection days 2 and 3 (reads of this peptide / all reads for the bait, averaged over …
55. chain 1 H4N  0.000308 average fractional NGS count over selection days 2 and 3 (reads of this peptide / all reads for the bait, averaged over …
56. chain 1 H4K  0.000298 average fractional NGS count over selection days 2 and 3 (reads of this peptide / all reads for the bait, averaged over …
57. chain 1 D13H  0.000247 average fractional NGS count over selection days 2 and 3 (reads of this peptide / all reads for the bait, averaged over …
58. chain 1 M16F  0.000243 average fractional NGS count over selection days 2 and 3 (reads of this peptide / all reads for the bait, averaged over …
59. chain 1 H4V  0.000238 average fractional NGS count over selection days 2 and 3 (reads of this peptide / all reads for the bait, averaged over …
60. chain 1 H4F  0.000236 average fractional NGS count over selection days 2 and 3 (reads of this peptide / all reads for the bait, averaged over …
61. chain 1 T3D  0.000232 average fractional NGS count over selection days 2 and 3 (reads of this peptide / all reads for the bait, averaged over …
62. chain 1 M16P  0.000227 average fractional NGS count over selection days 2 and 3 (reads of this peptide / all reads for the bait, averaged over …
63. chain 1 G10Y  0.000227 average fractional NGS count over selection days 2 and 3 (reads of this peptide / all reads for the bait, averaged over …
64. chain 1 M16Q  0.000223 average fractional NGS count over selection days 2 and 3 (reads of this peptide / all reads for the bait, averaged over …
65. chain 1 T3G  0.000204 average fractional NGS count over selection days 2 and 3 (reads of this peptide / all reads for the bait, averaged over …
66. chain 1 T3Q  0.000196 average fractional NGS count over selection days 2 and 3 (reads of this peptide / all reads for the bait, averaged over …
67. chain 1 L12M  0.000189 average fractional NGS count over selection days 2 and 3 (reads of this peptide / all reads for the bait, averaged over …
68. chain 1 L12A  0.000185 average fractional NGS count over selection days 2 and 3 (reads of this peptide / all reads for the bait, averaged over …
69. chain 1 H4A  0.000176 average fractional NGS count over selection days 2 and 3 (reads of this peptide / all reads for the bait, averaged over …
70. chain 1 L12I  0.000166 average fractional NGS count over selection days 2 and 3 (reads of this peptide / all reads for the bait, averaged over …
71. chain 1 G10L  0.000164 average fractional NGS count over selection days 2 and 3 (reads of this peptide / all reads for the bait, averaged over …
72. chain 1 G10T  0.000148 average fractional NGS count over selection days 2 and 3 (reads of this peptide / all reads for the bait, averaged over …
73. chain 1 T3H  0.000104 average fractional NGS count over selection days 2 and 3 (reads of this peptide / all reads for the bait, averaged over …
74. chain 1 M16A  9.05e-05 average fractional NGS count over selection days 2 and 3 (reads of this peptide / all reads for the bait, averaged over …
75. chain 1 G10I  7.33e-05 average fractional NGS count over selection days 2 and 3 (reads of this peptide / all reads for the bait, averaged over …
